Reference: article PMC10912764

How the values were obtained:
[1] = target: amyloid-β peptide Aβ (1–42) (UniProt P05067)
[2] = target: amyloid-β peptide Aβ (1–42) (UniProt P05067); remark: listed apart in the source

E. coli CsgA protein with a C-terminal 6× His tag, sequence (P28307 21-151): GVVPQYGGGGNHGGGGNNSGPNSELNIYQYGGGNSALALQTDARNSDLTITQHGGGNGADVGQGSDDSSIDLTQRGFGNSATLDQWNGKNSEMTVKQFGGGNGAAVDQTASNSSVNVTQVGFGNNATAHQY

E. coli CsgA protein with a C-terminal 6× His tag (from UniProt P28307 21-151) (natural protein)
inhibition of Aβ aggregation (ThT fluorescence; 75 µM Aβ with 10 µM CsgA), as given in the legend [1]: 47% | inhibition of Aβ aggregation (ThT fluorescence; 75 µM Aβ with 10 µM CsgA, excess Aβ 7.5:1) [2]: 43% | lag phase of Aβ aggregation (ThT) with CsgA; approximately 150 h without CsgA [2]: 175 h
